Measurements as given in patent US10711248B2, “Device and method for standardizing myoblast differentiation into myotubes” (Cytoo, priority 2013, dated 2020).

B1: Wnt4: Wnt molecule known to stimulate AChR clustering in mice (protein, UniProt P56705 23-351, looked up)
Protein Wnt-4: SNWLYLAKLSSVGSISEEETCEKLKGLIQRQVQMCKRNLEVMDSVRRGAQLAIEECQYQFRNRRWNCSTLDSLPVFGKVVTQGTREAAFVYAISSAGVAFAVTRACSSGELEKCGCDRTVHGVSPQGFQWSGCSDNIAYGVAFSQSFVDVRERSKGASSSRALMNLHNNEAGRKAILTHMRVECKCHGVSGSCEVKTCWRAVPPFRQVGHALKEKFDGATEVEPRRVGSSRALVPRNAQFKPHTDEDLVYLEPSPDFCEQDMRSGVLGTRGRTCNKTSKAIDGCELLCCGRGFHTAQVELAERCSCKFHWCCFVKCRQCQRLVELHTCR
B2: Wnt3a: Wnt molecule known to inhibit AChR clustering in mice (protein, UniProt P56704 19-352, looked up)
Protein Wnt-3a: SYPIWWSLAVGPQYSSLGSQPILCASIPGLVPKQLRFCRNYVEIMPSVAEGIKIGIQECQHQFRGRRWNCTTVHDSLAIFGPVLDKATRESAFVHAIASAGVAFAVTRSCAEGTAAICGCSSRHQGSPGKGWKWGGCSEDIEFGGMVSREFADARENRPDARSAMNRHNNEAGRQAIASHMHLKCKCHGLSGSCEVKTCWWSQPDFRAIGDFLKDKYDSASEMVVEKHRESRGWVETLRPRYTYFKVPTERDLVYYEASPNFCEPNPETGSFGTRDRTCNVSSHGIDGCDLLCCGRGHNARAERRREKCRCVFHWCCYVSCQECTRVYDVHTCK

test system: acetylcholine receptors (AChR) clustering in myotubes derived from human primary cells; assay: Acetylcholine receptor clustering in primary human myotubes cultured on micropatterns (TMR-Bungarotoxin probe); assay type: cell-based; conditions: FIG. 8A/8B
Procedure: FIG. 8B is a quantification of the regulation of cluster formation through agrin and Wnt signaling;
C2C12 mouse or primary human myoblasts (HSMM, Lonza) were cultured on fibronectin coated micropatterns within growth medium (DMEM, 20% FBS, 0.5% P/S, or Lonza SkGM™-2 cell culture Kit respectively) during 24 hours. Then both cell types were cultured within differentiation medium (DMEM/F12, 2% Horse Serum, 0.5% P/S) during 5 to 11 days for HSMM and C2C12 respectively. Differentiation medium were changed every 2 days. Cells were fixed and an immunostaining was realized against myosin heavy chain (in green in a color image—in light grey in the appended black&white figures), actin (in red in a color image—in medium grey in the appended black&white figures) and nuclei (in blue in a color image—in dark grey in the appended black&white figures). Images were acquired using an epifluorescence microscope (DMI6000, Leica).

| Molecule | Effect on AChR clustering / cluster formation |
| --- | --- |
| agrin: treatment inducing acetylcholine receptor clustering in myotubes [reference compound] | large clustering |
| B1 | stimulate |
| B2 | inhibit |
